Measurements reported in patent publication WO2016167227A1.

Molecular target: human-derived insoluble fibrin (human) (UniProt P02671)
Experiment: ELISA, peroxidase-labelled antibody on fibrin plate; 0.1 μg/mL of 443-2 gave about the signal of 10 μg/mL of the reference

Sequence of UniProt P02671 (P02671 36-629 limits assumed, chain 1 of 3): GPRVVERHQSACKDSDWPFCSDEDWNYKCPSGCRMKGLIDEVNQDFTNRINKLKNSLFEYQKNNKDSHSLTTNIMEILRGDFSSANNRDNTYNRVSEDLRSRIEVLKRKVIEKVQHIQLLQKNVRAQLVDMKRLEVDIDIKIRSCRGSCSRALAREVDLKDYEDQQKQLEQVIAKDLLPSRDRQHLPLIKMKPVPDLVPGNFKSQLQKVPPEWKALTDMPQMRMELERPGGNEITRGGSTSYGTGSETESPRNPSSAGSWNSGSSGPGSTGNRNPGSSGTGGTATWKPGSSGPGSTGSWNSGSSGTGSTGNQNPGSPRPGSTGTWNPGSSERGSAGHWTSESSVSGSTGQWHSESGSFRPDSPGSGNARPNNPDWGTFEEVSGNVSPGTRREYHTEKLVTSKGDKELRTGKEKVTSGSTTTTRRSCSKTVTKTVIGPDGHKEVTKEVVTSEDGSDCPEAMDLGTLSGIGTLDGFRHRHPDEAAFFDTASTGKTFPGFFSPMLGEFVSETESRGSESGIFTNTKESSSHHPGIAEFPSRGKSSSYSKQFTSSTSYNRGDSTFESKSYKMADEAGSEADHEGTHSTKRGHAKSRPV
Sequence of UniProt P02671 (chain, as listed by the source limits assumed, chain 2 of 3): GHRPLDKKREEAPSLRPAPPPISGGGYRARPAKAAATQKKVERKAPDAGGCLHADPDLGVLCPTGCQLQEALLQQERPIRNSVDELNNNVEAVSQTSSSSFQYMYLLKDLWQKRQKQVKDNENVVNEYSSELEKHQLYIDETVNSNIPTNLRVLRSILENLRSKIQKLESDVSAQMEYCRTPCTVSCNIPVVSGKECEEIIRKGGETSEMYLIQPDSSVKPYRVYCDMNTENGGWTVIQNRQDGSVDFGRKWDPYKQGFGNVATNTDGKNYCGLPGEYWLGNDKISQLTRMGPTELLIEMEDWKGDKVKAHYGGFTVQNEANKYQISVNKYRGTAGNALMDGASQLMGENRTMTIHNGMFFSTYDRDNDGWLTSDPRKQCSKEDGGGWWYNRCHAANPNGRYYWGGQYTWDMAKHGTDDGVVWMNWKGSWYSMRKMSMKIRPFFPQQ
Sequence of UniProt P02671 (chain, as listed by the source limits assumed, chain 3 of 3): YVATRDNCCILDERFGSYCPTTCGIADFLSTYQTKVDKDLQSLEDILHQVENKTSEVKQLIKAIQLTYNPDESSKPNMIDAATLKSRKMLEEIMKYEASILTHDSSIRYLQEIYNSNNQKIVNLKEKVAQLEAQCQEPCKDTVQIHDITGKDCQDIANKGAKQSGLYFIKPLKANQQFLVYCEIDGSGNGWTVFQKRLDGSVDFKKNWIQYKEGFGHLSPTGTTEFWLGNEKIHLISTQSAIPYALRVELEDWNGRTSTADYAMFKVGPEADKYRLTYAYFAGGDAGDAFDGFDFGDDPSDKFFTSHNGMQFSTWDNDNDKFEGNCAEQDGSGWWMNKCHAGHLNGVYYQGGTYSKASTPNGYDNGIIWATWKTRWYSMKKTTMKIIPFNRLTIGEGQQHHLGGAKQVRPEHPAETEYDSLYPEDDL

- fold affinity for insoluble fibrin against the 102-10 antibody (printed 102-12): 100 times
B1: 443-2 antibody (antibody, V domains shown)
VH: QIQLVQSGPELKKPGESVKISCKASGYTFTDYAMNWVKQAPGNGLKWMGWINTQTGKPTYADDFKQRFVFSLETSATTAYLQINNLNIEDTATYFCTRLMDAWGQGASVTVSS
VL: DIVMTQSPSSLAVSAGETVTINCKSSQSLLSSGNQKNYLAWYQQKPGQSPKLLIYLASTRESGVPDRLIGSGSGTDFTLTISSMQAEDLAIYYCQQYYETPHTFGAGTKLELKR
